Assay results published in patent CN114349850A (JIANG QINGHUA; WANG PINGPING; STEP HIGH; ZHAO DONGMING, dated 2022).

Key:
SARS-CoV-2 Spike蛋白 = SARS-CoV-2 Spike蛋白 (SARS-CoV-2, UniProt P0DTC2 16-1213); test: cell-based or functional assay
SARS-CoV-2 Spike RBD区域蛋白 = SARS-CoV-2 Spike RBD区域蛋白 (SARS-CoV-2, UniProt P0DTC2 319-541); test: competitive ELISA, GD1-69 against ACE2 for SARS-CoV-2 S protein / RBD

B1: GD1-69 (antibody, human IgG1, kappa, V domains shown)
VH: EVQLLESGGGLVQPGGSLRLSCAASGFTFSNYAMSWVRQAPGKGLEWVSVIYSGVSSTYYEDSVKGRFTISRDNSKNTLYLQMNSLRAEDTAVYYCAKDPSYDTRGYIFDYWGQGTLVTVSS
VL: DIVMTQSPATLSVSPGERATLSCRASQSVSTNLAWYQQKPGQAPRLLIYGTSTRATGVPARFSGSGSGTEFTLTISSLQSEDFAIYYCLQYNNWRTFGQGTKLEIKR
notes: also called 目标抗体; GD1-69抗体
噬斑减少中和测试 (活SARS-CoV-2病毒, Vero E6细胞) IC50 (SARS-CoV-2 Spike蛋白): 0.44 µg/mL | 基于假病毒的中和试验 IC50 (SARS-CoV-2 Spike蛋白): 1.77 µg/mL | IC50 (SARS-CoV-2 Spike RBD区域蛋白): 0.26 µg/mL
